Data from paper PMC8442969.

Legend:
Test in all cases: NMR titration
[1] = molecular target: human DSS1 (Deletion of Split-hand/Split-foot 1), GST tag removed (human)
[2] = molecular target: human CSNAP (CSN Acidic Protein), GST tag removed (human)
[3] = molecular target: human mono-ubiquitin, N-terminally 6xHis tagged (made in house, for NMR) (human) (UniProt P0CG48)

| KD of site UBS2 (apparent) [1] [µM] | KD(app), first of two groups of residues [2] [µM] | KD(app), second of two groups of residues [2] [µM] | Kd [3] [µM] | Substance |
| --- | --- | --- | --- | --- |
| 1800 | 800 | 2000 |  | human mono-ubiquitin, N-terminally 6xHis tagged (made in house, for NMR) (from UniProt P0CG48 1-76) (natural protein) |
|  |  |  | 430 | human DSS1 (Deletion of Split-hand/Split-foot 1), GST tag removed (natural protein) |
